Tests used:
[1] = target: T1, GM-CSF receptor alpha chain (Balb/c form, Asp227; on Ba/F3 cells expressing beta chain) (Mus musculus, UniProt Q00941); assay: flow cytometry cell binding, non-linear regression
T1 chain: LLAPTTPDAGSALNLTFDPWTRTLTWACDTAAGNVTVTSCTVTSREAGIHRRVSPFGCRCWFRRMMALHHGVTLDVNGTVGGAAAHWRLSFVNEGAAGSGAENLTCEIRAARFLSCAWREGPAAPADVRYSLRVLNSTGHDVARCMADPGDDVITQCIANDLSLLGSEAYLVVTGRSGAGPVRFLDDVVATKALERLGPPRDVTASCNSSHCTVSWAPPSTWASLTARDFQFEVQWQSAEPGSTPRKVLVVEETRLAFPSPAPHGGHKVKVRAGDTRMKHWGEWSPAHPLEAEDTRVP

[2] = target: T2, GM-CSF receptor alpha chain (C57BL/6 form, Gly227; on Ba/F3 cells expressing beta chain) (Mus musculus, UniProt Q00941); assay: flow cytometry cell binding, non-linear regression
T2 chain: T1 chain

B1: GM-CSF-Fc fusion (GM-Fc) (protein)
chain: APTRSPITVTRPWKHVEAIKEALNLLDDMPVTLNEEVEVVSNEFSFKKLTCVQTRLKIFEQGLRGNFTKLKGALNMTASYYQTYCPPTPETDCETQVTTYADFIDSLKTFLTDIPFECKKPGQK
modifications: GM-CSF fused to mutated human IgG1 Fc, Ba/F3 cells co-expressing beta chain
Q: With B1 as the binder, how does the Kd [1] read?
A: 15.6 nM

Q: What about the Kd [2] of the same binder?
A: 19.6 nM

From publication PMC2699419 (2007)
